Laboratory results reported in article doi:10.1101/467969 (bioRxiv, 2018).

Target: the molecule itself
Test: cryo-EM structure

B1: mouse TRPC5 construct lacking the C-terminal 210 residues (a.a. 1-765) (domain or fragment, UniProt Q9QX29 1-765, looked up)
chain: MAQLYYKKVNYSPYRDRIPLQIVRAETELSAEEKAFLSAVEKGDYATVKQALQEAEIYYNVNINCMDPLGRSALLIAIENENLEIMELLLNHSVYVGDALLYAIRKEVVGAVELLLSYRKPSGEKQVPTLMMDTQFSEFTPDITPIMLAAHTNNYEIIKLLVQKRVTIPRPHQIRCNCVECVSSSEVDSLRHSRSRLNIYKALASPSLIALSSEDPILTAFRLGWELKELSKVENEFKAEYEELSQQCKLFAKDLLDQARSSRELEIILNHRDDHSEELDPQKYHDLAKLKVAIKYHQKEFVAQPNCQQLLATLWYDGFPGWRRKHWVVKLLTCMTIGFLFPMLSIAYLISPRSNLGLFIKKPFIKFICHTASYLTFLFMLLLASQHIVRTDLHVQGPPPTVVEWMILPWVLGFIWGEIKEMWDGGFTEYIHDWWNLMDFAMNSLYLATISLKIVAYVKYNGSRPREEWEMWHPTLIAEALFAISNILSSLRLISLFTANSHLGPLQISLGRMLLDILKFLFIYCLVLLAFANGLNQLYFYYETRAIDEPNNCKGIRCEKQNNAFSTLFETLQSLFWSVFGLLNLYVTNVKARHEFTEFVGATMFGTYNVISLVVLLNMLIAMMNNSYQLIADHADIEWKFARTKLWMSYFDEGGTLPPPFNIIPSPKSFLYLGNWFNNTFCPKRDPDGRRRRHNLRSFTERHADSLIQNQHYQEVIRNLVKRYVAAMIRNSKTNEGLTEENFKELKQDISSFRYEVLDLLGNRK
stoichiometry N: 4
